T1: human GM-CSFRα, full length on cells (human, UniProt P15509 23-400)
T1 sequence: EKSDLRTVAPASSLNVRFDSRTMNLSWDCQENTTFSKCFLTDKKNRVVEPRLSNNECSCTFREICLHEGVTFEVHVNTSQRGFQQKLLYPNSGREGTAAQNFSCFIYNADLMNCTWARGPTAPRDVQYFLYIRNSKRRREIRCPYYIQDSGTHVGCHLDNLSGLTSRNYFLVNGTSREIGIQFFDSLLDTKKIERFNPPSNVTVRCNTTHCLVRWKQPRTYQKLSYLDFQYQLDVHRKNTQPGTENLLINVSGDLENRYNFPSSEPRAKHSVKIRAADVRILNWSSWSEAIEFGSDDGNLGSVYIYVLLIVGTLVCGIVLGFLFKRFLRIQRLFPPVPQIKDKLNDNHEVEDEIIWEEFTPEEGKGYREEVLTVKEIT

B1: E35-VL93D-IG4 (antibody, IgG4, V domains shown)
VH: QMQLVQSGAEVKKPGASVKVSCKVSGYTLTELSIHWVRQAPGKGLEWMGGFDPEDGETIYAQKFQGRVTMTGDTSTDTAYLELSSLRSEDTALYYCATGRYTSLATTYGFDYWGQGTLVTVSS
VL: EIVMTQSPATLSLSPGERATLSCRASQSVSSYLAWYQQKPGQAPRLLIYGASSRATGIPDRFSGSGSGTDFTLTISRLEPEDFAVYYCQQYDDWPYTFGQGTKLEIK
B2: E35-VH28H-IG4 (antibody, IgG4, V domains shown)
VH: QMQLVQSGAEVKKPGASVKVSCKVSGYHLTELSIHWVRQAPGKGLEWMGGFDPEDGETIYAQKFQGRVTMTGDTSTDTAYLELSSLRSEDTALYYCATGRYTSLATTYGFDYWGQGTLVTVSS
VL: EIVMTQSPATLSLSPGERATLSCRASQSVSSYLAWYQQKPGQAPRLLIYGASSRATGIPDRFSGSGSGTDFTLTISRLEPEDFAVYYCQQYDNWPYTFGQGTKLEIK
B3: E35-VH28H-VL30L-IG4 (antibody, IgG4, V domains shown)
VH: QMQLVQSGAEVKKPGASVKVSCKVSGYHLTELSIHWVRQAPGKGLEWMGGFDPEDGETIYAQKFQGRVTMTGDTSTDTAYLELSSLRSEDTALYYCATGRYTSLATTYGFDYWGQGTLVTVSS
VL: EIVMTQSPATLSLSPGERATLSCRASQSVLSYLAWYQQKPGQAPRLLIYGASSRATGIPDRFSGSGSGTDFTLTISRLEPEDFAVYYCQQYDNWPYTFGQGTKLEIK
B4: E35-VH28E-IG4 (antibody, IgG4, V domains shown)
VH: QMQLVQSGAEVKKPGASVKVSCKVSGYELTELSIHWVRQAPGKGLEWMGGFDPEDGETIYAQKFQGRVTMTGDTSTDTAYLELSSLRSEDTALYYCATGRYTSLATTYGFDYWGQGTLVTVSS
VL: EIVMTQSPATLSLSPGERATLSCRASQSVSSYLAWYQQKPGQAPRLLIYGASSRATGIPDRFSGSGSGTDFTLTISRLEPEDFAVYYCQQYDNWPYTFGQGTKLEIK
B5: E35-VH28H-VL93L-IG4 (antibody, IgG4, V domains shown)
VH: QMQLVQSGAEVKKPGASVKVSCKVSGYHLTELSIHWVRQAPGKGLEWMGGFDPEDGETIYAQKFQGRVTMTGDTSTDTAYLELSSLRSEDTALYYCATGRYTSLATTYGFDYWGQGTLVTVSS
VL: EIVMTQSPATLSLSPGERATLSCRASQSVSSYLAWYQQKPGQAPRLLIYGASSRATGIPDRFSGSGSGTDFTLTISRLEPEDFAVYYCQQYDLWPYTFGQGTKLEIK
B6: E35-VH28H-VL30C-IG4 (antibody, IgG4, V domains shown)
VH: QMQLVQSGAEVKKPGASVKVSCKVSGYHLTELSIHWVRQAPGKGLEWMGGFDPEDGETIYAQKFQGRVTMTGDTSTDTAYLELSSLRSEDTALYYCATGRYTSLATTYGFDYWGQGTLVTVSS
VL: EIVMTQSPATLSLSPGERATLSCRASQSVCSYLAWYQQKPGQAPRLLIYGASSRATGIPDRFSGSGSGTDFTLTISRLEPEDFAVYYCQQYDNWPYTFGQGTKLEIK
B7: E35-scFv LS31R (scFv, V domains shown)
VH: QMQLVQSGAEVKKPGASVKVSCKVSGYTLTELSIHWVRQAPGKGLEWMGGFDPEDGETIYAQKFQGRVTMTGDTSTDTAYLELSSLRSEDTALYYCATGRYTSLATTYGFDYWGQGTLVTVSS
VL: EIVMTQSPATLSLSPGERATLSCRASQSVSRYLAWYQQKPGQAPRLLIYGASSRATGIPDRFSGSGSGTDFTLTISRLEPEDFAVYYCQQYDNWPYTFGQGTKLEIK
B8: E35-scFv LS31Q (scFv, V domains shown)
VH: QMQLVQSGAEVKKPGASVKVSCKVSGYTLTELSIHWVRQAPGKGLEWMGGFDPEDGETIYAQKFQGRVTMTGDTSTDTAYLELSSLRSEDTALYYCATGRYTSLATTYGFDYWGQGTLVTVSS
VL: EIVMTQSPATLSLSPGERATLSCRASQSVSQYLAWYQQKPGQAPRLLIYGASSRATGIPDRFSGSGSGTDFTLTISRLEPEDFAVYYCQQYDNWPYTFGQGTKLEIK
B9: E35-scFv LS31H (scFv, V domains shown)
VH: QMQLVQSGAEVKKPGASVKVSCKVSGYTLTELSIHWVRQAPGKGLEWMGGFDPEDGETIYAQKFQGRVTMTGDTSTDTAYLELSSLRSEDTALYYCATGRYTSLATTYGFDYWGQGTLVTVSS
VL: EIVMTQSPATLSLSPGERATLSCRASQSVSHYLAWYQQKPGQAPRLLIYGASSRATGIPDRFSGSGSGTDFTLTISRLEPEDFAVYYCQQYDNWPYTFGQGTKLEIK
B10: E35-scFv LQ27C (scFv, V domains shown)
VH: QMQLVQSGAEVKKPGASVKVSCKVSGYTLTELSIHWVRQAPGKGLEWMGGFDPEDGETIYAQKFQGRVTMTGDTSTDTAYLELSSLRSEDTALYYCATGRYTSLATTYGFDYWGQGTLVTVSS
VL: EIVMTQSPATLSLSPGERATLSCRASCSVSSYLAWYQQKPGQAPRLLIYGASSRATGIPDRFSGSGSGTDFTLTISRLEPEDFAVYYCQQYDNWPYTFGQGTKLEIK
B11: E35-scFv LS31A (scFv, V domains shown)
VH: QMQLVQSGAEVKKPGASVKVSCKVSGYTLTELSIHWVRQAPGKGLEWMGGFDPEDGETIYAQKFQGRVTMTGDTSTDTAYLELSSLRSEDTALYYCATGRYTSLATTYGFDYWGQGTLVTVSS
VL: EIVMTQSPATLSLSPGERATLSCRASQSVSAYLAWYQQKPGQAPRLLIYGASSRATGIPDRFSGSGSGTDFTLTISRLEPEDFAVYYCQQYDNWPYTFGQGTKLEIK
B12: E35-scFv LS31P (scFv, V domains shown)
VH: QMQLVQSGAEVKKPGASVKVSCKVSGYTLTELSIHWVRQAPGKGLEWMGGFDPEDGETIYAQKFQGRVTMTGDTSTDTAYLELSSLRSEDTALYYCATGRYTSLATTYGFDYWGQGTLVTVSS
VL: EIVMTQSPATLSLSPGERATLSCRASQSVSPYLAWYQQKPGQAPRLLIYGASSRATGIPDRFSGSGSGTDFTLTISRLEPEDFAVYYCQQYDNWPYTFGQGTKLEIK
B13: E35-scFv LS31M (scFv, V domains shown)
VH: QMQLVQSGAEVKKPGASVKVSCKVSGYTLTELSIHWVRQAPGKGLEWMGGFDPEDGETIYAQKFQGRVTMTGDTSTDTAYLELSSLRSEDTALYYCATGRYTSLATTYGFDYWGQGTLVTVSS
VL: EIVMTQSPATLSLSPGERATLSCRASQSVSMYLAWYQQKPGQAPRLLIYGASSRATGIPDRFSGSGSGTDFTLTISRLEPEDFAVYYCQQYDNWPYTFGQGTKLEIK
B14: E35-scFv LQ27S (scFv, V domains shown)
VH: QMQLVQSGAEVKKPGASVKVSCKVSGYTLTELSIHWVRQAPGKGLEWMGGFDPEDGETIYAQKFQGRVTMTGDTSTDTAYLELSSLRSEDTALYYCATGRYTSLATTYGFDYWGQGTLVTVSS
VL: EIVMTQSPATLSLSPGERATLSCRASSSVSSYLAWYQQKPGQAPRLLIYGASSRATGIPDRFSGSGSGTDFTLTISRLEPEDFAVYYCQQYDNWPYTFGQGTKLEIK
B15: E35-scFv LS31T (scFv, V domains shown)
VH: QMQLVQSGAEVKKPGASVKVSCKVSGYTLTELSIHWVRQAPGKGLEWMGGFDPEDGETIYAQKFQGRVTMTGDTSTDTAYLELSSLRSEDTALYYCATGRYTSLATTYGFDYWGQGTLVTVSS
VL: EIVMTQSPATLSLSPGERATLSCRASQSVSTYLAWYQQKPGQAPRLLIYGASSRATGIPDRFSGSGSGTDFTLTISRLEPEDFAVYYCQQYDNWPYTFGQGTKLEIK

biological target: T1, human GM-CSFRα, full length on cells; assay: cell-based or functional assay

Going from B1 to B2, the “IC50, TF-1 cell proliferation” value rises from 0.0371 µg/mL to 0.0569 µg/mL (1.5-fold).

B3 and B4 are within 1.5-fold of each other in “IC50, TF-1 cell proliferation” value: 0.0296 µg/mL for the first, 0.0307 µg/mL for the second.

Compared with B5, B6 is 2.6-fold higher in “IC50, TF-1 cell proliferation” value: 0.0163 µg/mL for the first, 0.0431 µg/mL for the second.

biological target: T1, human GM-CSFRα, full length on cells; assay: cell-based or functional assay; remark: another data set of the same source

Compared with B7, B8 is 1.7-fold higher in “IC50, TF-1 cell proliferation” value: 0.069 µg/mL for the first, 0.117 µg/mL for the second.

B9 and B10 are within 1.5-fold of each other in “IC50, TF-1 cell proliferation” value: 0.106 µg/mL for the first, 0.142 µg/mL for the second.

Compared with B11, B12 is 1.8-fold higher in “IC50, TF-1 cell proliferation” value: 0.078 µg/mL for the first, 0.139 µg/mL for the second.

B13 and B14 are within 1.5-fold of each other in “IC50, TF-1 cell proliferation” value: 0.156 µg/mL for the first, 0.138 µg/mL for the second.

B15 was tested, and the “IC50, TF-1 cell proliferation” value was 0.06 µg/mL.
